In patent US20230140797A1 (published 2023):
Substitutions are numbered along the chain they refer to.

T1: human FcγRIIb extracellular domain with C-terminal His tag (human, UniProt P31994 43-217)
T1 sequence (looked up): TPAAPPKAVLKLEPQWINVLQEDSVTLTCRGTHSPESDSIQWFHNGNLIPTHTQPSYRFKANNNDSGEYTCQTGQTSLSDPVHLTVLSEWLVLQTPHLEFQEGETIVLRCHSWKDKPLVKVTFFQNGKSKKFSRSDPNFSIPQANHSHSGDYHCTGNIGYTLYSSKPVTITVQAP

T2: human FcγRIIa type R (131Arg) extracellular domain with C-terminal His tag (human, UniProt P12318 34-217)
T2 sequence (looked up): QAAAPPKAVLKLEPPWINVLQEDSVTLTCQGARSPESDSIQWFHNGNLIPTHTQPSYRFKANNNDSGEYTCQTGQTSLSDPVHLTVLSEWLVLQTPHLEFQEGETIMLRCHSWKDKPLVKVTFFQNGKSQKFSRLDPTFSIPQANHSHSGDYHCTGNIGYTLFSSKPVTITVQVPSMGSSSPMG

T3: human FcγRIIb extracellular domain with C-terminal His tag (human, UniProt P31994 43-217)
T3 sequence (looked up): T1 sequence (looked up)

T4: human FcγRIIb extracellular domain with C-terminal His tag (human, UniProt P31994 43-217)
T4 sequence (looked up): T1 sequence (looked up)

B1: IL6R-BP911/IL6R-L (antibody, human IgG1, kappa)
heavy: QVQLQESGPGLVKPSETLSLTCAVSGHSISHDHAWSWVRQPPGEGLEWIGFISYSGITNYNPSLQGRVTISRDNSKNTLYLQMNSLRAEDTAVYYCARSLARTTAMDYWGEGTLVTVSSASTKGPSVFPLAPSSKSTSGGTAALGCLVKDYFPEPVTVSWNSGALTSGVHTFPAVLQSSGLYSLSSVVTVPSSSLGTQTYICNVNHKPSNTKVDKKVEPKSCDKTHTCPPCPAPELLGGDSVFLFPPKPKDTLMISRTPEVTCVVVDVSHEDPEVKFNWYVDGVEVHNAKTKPREEQYNSTYRVVSVLTVLHQDWLNGKEYKCKVSNKALPKPIEKTISKAKGQPREPQVYTLPPSRDELTKNQVSLTCLVKGFYPSDIAVEWESNGQPENNYKTTPPVLDSDGSFFLYSKLTVDKSRWQQGNVFSCSVMHEALHNHYTQESLSLSP
light: not shown
B2: IL6R-BP102/IL6R-L (antibody, human IgG1, kappa)
heavy: B1 heavy with S269Q, K332A
light: not shown
B3: IL6R-BP103/IL6R-L (antibody, human IgG1, kappa)
heavy: B1 heavy with S269V, K332A
light: not shown
B4: IL6R-BP126/IL6R-L (antibody, human IgG1, kappa)
heavy: B1 heavy with K328L, K332A
light: not shown
B5: IL6R-BP136/IL6R-L (antibody, human IgG1, kappa)
heavy: B1 heavy with K328A, K332A
light: not shown
B6: IL6R-BP112/IL6R-L (antibody, human IgG1, kappa)
heavy: B1 heavy with P273G, K332A
light: not shown
B7: IL6R-BP142/IL6R-L (antibody, human IgG1, kappa)
heavy: B1 heavy with K328N, K332A
light: not shown
B8: IL6R-BP116/IL6R-L (antibody, human IgG1, kappa)
heavy: B1 heavy with K328T, K332A
light: not shown
B9: IL6R-BP078/IL6R-L (antibody, human IgG1, kappa)
heavy: B1 heavy with K332M
light: not shown
B10: IL6R-2B172/IL6R-L (antibody, human IgG1, kappa)
heavy: B1 heavy with V325M, K332A
light: not shown
B11: IL6R-BP121/IL6R-L (antibody, human IgG1, kappa)
heavy: B1 heavy with K328Q, K332A
light: not shown
B12: IL6R-BP117/IL6R-L (antibody, human IgG1, kappa)
heavy: B1 heavy with K328D, K332A
light: not shown
B13: IL6R-BP912/IL6R-L (antibody, human IgG1, kappa)
heavy: B1 heavy with K332R
light: not shown
B14: IL6R-BP118/IL6R-L (antibody, human IgG1, kappa)
heavy: B1 heavy with K328S, K332A
light: not shown
B15: IL6R-BP110/IL6R-L (antibody, human IgG1, kappa)
heavy: B1 heavy with H270N, K332A
light: not shown
B16: IL6R-2B002/IL6R-L (antibody, human IgG1, kappa)
heavy: B1 heavy with E235D, K332A
light: not shown
B17: IL6R-2B169/IL6R-L (antibody, human IgG1, kappa)
heavy: B1 heavy with V325I, K332A
light: not shown
B18: IL6R-2B128/IL6R-L (antibody, human IgG1, kappa)
heavy: B1 heavy with Y298D, K332A
light: not shown
B19: IL6R-BP100/IL6R-L (antibody, human IgG1, kappa)
heavy: B1 heavy with S269A, K332A
light: not shown
B20: IL6R-BP106/IL6R-L (antibody, human IgG1, kappa)
heavy: B1 heavy with H270D, K332A
light: not shown
B21: IL6R-BP265/IL6R-L (antibody, human IgG1, kappa)
heavy: B1 heavy with G239D, H270E, P273G, Y298D, K332R
light: not shown
B22: IL6R-BP268/IL6R-L (antibody, human IgG1, kappa)
heavy: B1 heavy with E235D, G239D, H270E, P273G, Y298D, K332A
light: not shown
B23: IL6R-BP435/IL6R-L (antibody, human IgG1, kappa)
heavy: B1 heavy with E235D, G239D, H270D, P273G, Y298D, K328A, K332R, I334T
light: not shown
B24: IL6R-BP499/IL6R-L (antibody, human IgG1, kappa)
heavy: B1 heavy with E235D, G239D, V266I, S269A, H270E, P273G, Y298D, K332R, P398L
light: not shown
B25: IL6R-BP494/IL6R-L (antibody, human IgG1, kappa)
heavy: B1 heavy with G239D, S269A, H270E, P273G, Y298D, K332R
light: not shown
B26: IL6R-BP489/IL6R-L (antibody, human IgG1, kappa)
heavy: B1 heavy with E235D, G239D, V266I, S269A, H270E, P273G, Y298D, K332R, P398M
light: not shown
B27: IL6R-BP550/IL6R-L (antibody, human IgG1, kappa)
heavy: B1 heavy with G239D, V266I, S269G, H270E, P273G, E274D, Y298D, K332R
light: not shown
B28: IL6R-BP567/IL6R-L (antibody, human IgG1, kappa)
heavy: B1 heavy with E235D, V266I, S269A, H270E, P273G, Y298D, K332A
light: not shown
B29: IL6R-BP539/IL6R-L (antibody, human IgG1, kappa)
heavy: B1 heavy with G239D, V266I, S269G, H270E, P273G, E274P, Y298D, K332R
light: not shown
B30: IL6R-BP551/IL6R-L (antibody, human IgG1, kappa)
heavy: B1 heavy with G239D, V266I, H270E, P273G, E274D, Y298D, K332R
light: not shown
B31: IL6R-BP536/IL6R-L (antibody, human IgG1, kappa)
heavy: B1 heavy with E235D, G239D, V266I, H270E, P273G, Y298D, A329G, K332R, P398M
light: not shown
B32: IL6R-BP565/IL6R-L (antibody, human IgG1, kappa)
heavy: B1 heavy with E235D, G239D, S269A, H270E, P273G, Y298D, K332R
light: not shown
B33: IL6R-BP568/IL6R-L (antibody, human IgG1, kappa)
heavy: B1 heavy with E235D, V266I, S269A, H270E, P273G, K332A
light: not shown

What follows are binders tested against T1, human FcγRIIb extracellular domain with … (assay: SPR Biacore, ratio of KDs).

| KD (IIb) of the parent polypeptide/KD (IIb) of the altered polypeptide | Binder |
| --- | --- |
| 3.5 fold (parent IL6R-B3/IL6R-L) | B1 |
| 3.4 fold (parent IL6R-B3/IL6R-L) | B2 |
| 2.5 fold (parent IL6R-B3/IL6R-L) | B3 |
| 2.2 fold (parent IL6R-B3/IL6R-L) | B4 |
| 3.9 fold (parent IL6R-B3/IL6R-L) | B5 |
| 9.7 fold (parent IL6R-B3/IL6R-L) | B6 |
| 2.6 fold (parent IL6R-B3/IL6R-L) | B7 |
| 2.8 fold (parent IL6R-B3/IL6R-L) | B8 |
| 2.8 fold (parent IL6R-B3/IL6R-L) | B9 |
| 4 fold (parent IL6R-B3/IL6R-L) | B10 |
| 2.8 fold (parent IL6R-B3/IL6R-L) | B11 |
| 3.9 fold (parent IL6R-B3/IL6R-L) | B12 |
| 2.1 fold (parent IL6R-B3/IL6R-L) | B13 |
| 2.7 fold (parent IL6R-B3/IL6R-L) | B14 |
| 2.1 fold (parent IL6R-B3/IL6R-L) | B15 |
| 3.3 fold (parent IL6R-B3/IL6R-L) | B16 |
| 2.6 fold (parent IL6R-B3/IL6R-L) | B17 |
| 2.1 fold (parent IL6R-B3/IL6R-L) | B18 |
| 2.9 fold (parent IL6R-B3/IL6R-L) | B19 |
| 3.3 fold (parent IL6R-B3/IL6R-L) | B20 |

The binders below were run against T2, human FcγRIIa type R (131Arg) … (assay: SPR).

| Kd [nM] | Binder |
| --- | --- |
| 830 | B21 |
| 1300 | B22 |
| 120 | B23 |

Each binder was assayed against T3, human FcγRIIb extracellular domain with … (assay: ratio of SPR KDs).

| KD (IIaR)/KD (IIb) | Binder |
| --- | --- |
| 38.3 | B24 |
| 38.6 | B25 |
| 42.3 | B26 |

What follows are binders tested against T4, human FcγRIIb extracellular domain with … (assay: SPR).

| KD (IIaH)/KD (IIb) | Binder |
| --- | --- |
| 655 | B27 |
| 1230 | B28 |
| 667 | B29 |
| 436 | B30 |
| 438 | B31 |
| 856 | B32 |
| 748 | B33 |

Biological target: T4, human FcγRIIb extracellular domain with …
Experiment: SPR
Remark: another data set of the same source

| KD (IIaR)/KD (IIb) | Binder |
| --- | --- |
| 44.2 | B27 |
| 64.4 | B28 |
| 38 | B29 |
| 38.1 | B30 |
| 26.6 | B31 |
| 41.5 | B32 |
| 46.1 | B33 |
